± gives the uncertainty stated by the source.
Assay: self-splicing fitness, log relative to wild type (ln ratio); higher = more splicing; Tetrahymena group I intron in knt gene, E. coli kanamycin selection, DiMSum; sequences stand for … in CUCUCU…GGAGGGAAAAGUUAUCAGGCAUGCACCUGGUAGCUAGUCUUUAAACCAAUAGAUUGCAUCGGUUUAAAAGGCAAGACCGUCAAAUUGCGGGAAAGGGGUCAACAGCCGUUCAGUACCAAGUCUCAGGGGAAACUUUGAGAUGGCCUUGCAAAGGGUAUGGUAAUAAGCUGACGGACAUGGUCCUAACCACGCAGCCAAGUCCUAAGUCAACAGAUCUUCUGUUGAUAUGGAUGCAGUUCACAGACUAAAUGUCGGUCGGGGAAGAUGUAUUCUUCUCAUAAGAUAUAGUCGGACCUCUCCUUAAUGGGAGCUAGCGGAUGAAGUGAUGCAACACUGGAGCCGCUGGGAACUAAUUUGUAUGCGAAAGUAUAUUGAUUAGUUUUGGAGUACUCGUGGUCG
How it was run: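 Library with all eight P1ex-region intron nucleotides randomised, intron inside the knt kanamycin-resistance gene on pET-22b(+), in E. coli BL21(DE3). Cells grew overnight at 37°C or 30°C on LB agar with or without 25 μg/mL kanamycin (plus 100 μg/mL carbenicillin, 50 μM IPTG, 0.2% rhamnose), in six replicate transformations. Pooled colonies were amplicon-sequenced on Illumina HiSeq 2500. DiMSum fitness is the error-weighted combination of wild-type-normalised replicate fold changes, kanamycin versus none.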

| Sequence | self-splicing fitness (ln) (30 °C) | self-splicing fitness (ln) (37 °C) |
| --- | --- | --- |
| GACCAGCAAUAUUACGAAAA | -2.05 ± 0.12 | -0.391 ± 0.11 |
| GACCAGCAAUAUUACGAAAC | -1.43 ± 0.099 | 0.296 ± 0.11 |
| GACCAGCAAUAUUACGAACA | -0.472 ± 0.091 | 0.313 ± 0.081 |
| GACCAGCAAUAUUACGAAUA | -1.74 ± 0.11 | -0.549 ± 0.11 |
| GACCAGCAAUAUUACGACCC | -0.132 ± 0.14 | 0.75 ± 0.18 |
| GACCAGCAAUAUUACGACGU | -0.417 ± 0.064 | 0.321 ± 0.078 |
| GACCAGCAAUAUUACGAGCA | -1.07 ± 0.084 | -0.284 ± 0.096 |
| GACCAGCAAUAUUACGAGCG | -2.08 ± 0.067 | -0.434 ± 0.077 |
| GACCAGCAAUAUUACGAGGU | -2.95 ± 0.12 | -3.04 ± 0.2 |
| GACCAGCAAUAUUACGAGUU | -3.35 ± 0.1 | -1.5 ± 0.096 |
| GACCAGCAAUAUUACGCACG | -0.677 ± 0.067 | -0.895 ± 0.095 |
| GACCAGCAAUAUUACGCCGC | -3.75 ± 0.32 | – |
| GACCAGCAAUAUUACGGAGU | -0.646 ± 0.077 | 0.000468 ± 0.092 |
| GACCAGCAAUAUUACGGCCU | -2.51 ± 0.13 | -0.969 ± 0.11 |
| GACCAGCAAUAUUACGGGAG | -0.677 ± 0.053 | -0.0889 ± 0.065 |
| GACCAGCAAUAUUACGUACU | -0.709 ± 0.069 | 0.123 ± 0.082 |
| GACCAGCAAUAUUACGUAGA | 0.284 ± 0.056 | 0.219 ± 0.074 |
| GACCAGCAAUAUUACGUCCA | -1.75 ± 0.095 | -0.749 ± 0.095 |
| GACCAGCAAUAUUACGUCUC | -0.562 ± 0.044 | -0.159 ± 0.064 |
| GACCAGCAAUAUUACGUGCG | -0.787 ± 0.082 | -0.644 ± 0.097 |
| GACCAGCAAUAUUACGUUAA | -1.13 ± 0.093 | -0.35 ± 0.1 |
| GACGAGCAAUAUUACGAAUG | -3.03 ± 0.2 | -2.31 ± 0.22 |
| GACGAGCAAUAUUACGACAU | -2.931 ± 0.021 | -1.99 ± 0.036 |
| GACGAGCAAUAUUACGAGAC | -3.99 ± 0.28 | -1.95 ± 0.28 |
| GACGAGCAAUAUUACGAGCU | -3.27 ± 0.31 | – |

| Sequence | self-splicing fitness (ln) (30 °C) | self-splicing fitness (ln) (37 °C) |
| --- | --- | --- |
| GACGAGCAAUAUUACGAGUU | -3.06 ± 0.34 | – |
| GACGAGCAAUAUUACGAUUC | -1.39 ± 0.11 | -1.47 ± 0.17 |
| GACGAGCAAUAUUACGCAAU | – | -2.74 ± 0.31 |
| GACGAGCAAUAUUACGCAGG | -2.39 ± 0.2 | -1.6 ± 0.26 |
| GACGAGCAAUAUUACGCAGU | -3.48 ± 0.28 | -2.21 ± 0.23 |
| GACGAGCAAUAUUACGCCAG | – | -2.63 ± 0.28 |
| GACGAGCAAUAUUACGCCUC | -3.23 ± 0.37 | -1.86 ± 0.38 |
| GACGAGCAAUAUUACGCGGG | -3.48 ± 0.47 | -2.61 ± 0.36 |
| GACGAGCAAUAUUACGCUCA | -1.28 ± 0.15 | -0.493 ± 0.13 |
| GACGAGCAAUAUUACGGAAG | -2.39 ± 0.23 | -2.5 ± 0.31 |
| GACGAGCAAUAUUACGGACC | -1.34 ± 0.34 | -0.304 ± 0.33 |
| GACGAGCAAUAUUACGGCGA | -2.12 ± 0.13 | -1.65 ± 0.13 |
| GACGAGCAAUAUUACGGGCC | -2.12 ± 0.14 | -1.63 ± 0.21 |
| GACGAGCAAUAUUACGGGGG | -3.65 ± 0.22 | -2.98 ± 0.3 |
| GACGAGCAAUAUUACGGGGU | – | -2.59 ± 0.25 |
| GACGAGCAAUAUUACGGUAU | -3.43 ± 0.19 | -2.08 ± 0.26 |
| GACGAGCAAUAUUACGUAAA | -2.58 ± 0.18 | – |
| GACGAGCAAUAUUACGUACC | -3.61 ± 0.28 | -1.75 ± 0.21 |
| GACGAGCAAUAUUACGUAGC | -4.54 ± 0.41 | -2.33 ± 0.25 |
| GACGAGCAAUAUUACGUAUA | -3.23 ± 0.29 | -0.524 ± 0.2 |
| GACGAGCAAUAUUACGUCCU | -3.24 ± 0.25 | -1.81 ± 0.25 |
| GACGAGCAAUAUUACGUCGG | – | -1.96 ± 0.34 |
| GACGAGCAAUAUUACGUGCU | -2.92 ± 0.19 | -2.4 ± 0.23 |
| GACGAGCAAUAUUACGUUCC | -3.47 ± 0.23 | -2.65 ± 0.36 |
| GACGAGCAAUAUUACGUUCU | -4.53 ± 0.37 | -2.52 ± 0.24 |
